Positions count from the first letter of the chain named. In names and notes the source's numbering stands.
T1: EsCas13d, nuclease-dead (Eubacterium siraeum, UniProt B0MS50, R295A;H300A;R849A;H854A)
T1 sequence: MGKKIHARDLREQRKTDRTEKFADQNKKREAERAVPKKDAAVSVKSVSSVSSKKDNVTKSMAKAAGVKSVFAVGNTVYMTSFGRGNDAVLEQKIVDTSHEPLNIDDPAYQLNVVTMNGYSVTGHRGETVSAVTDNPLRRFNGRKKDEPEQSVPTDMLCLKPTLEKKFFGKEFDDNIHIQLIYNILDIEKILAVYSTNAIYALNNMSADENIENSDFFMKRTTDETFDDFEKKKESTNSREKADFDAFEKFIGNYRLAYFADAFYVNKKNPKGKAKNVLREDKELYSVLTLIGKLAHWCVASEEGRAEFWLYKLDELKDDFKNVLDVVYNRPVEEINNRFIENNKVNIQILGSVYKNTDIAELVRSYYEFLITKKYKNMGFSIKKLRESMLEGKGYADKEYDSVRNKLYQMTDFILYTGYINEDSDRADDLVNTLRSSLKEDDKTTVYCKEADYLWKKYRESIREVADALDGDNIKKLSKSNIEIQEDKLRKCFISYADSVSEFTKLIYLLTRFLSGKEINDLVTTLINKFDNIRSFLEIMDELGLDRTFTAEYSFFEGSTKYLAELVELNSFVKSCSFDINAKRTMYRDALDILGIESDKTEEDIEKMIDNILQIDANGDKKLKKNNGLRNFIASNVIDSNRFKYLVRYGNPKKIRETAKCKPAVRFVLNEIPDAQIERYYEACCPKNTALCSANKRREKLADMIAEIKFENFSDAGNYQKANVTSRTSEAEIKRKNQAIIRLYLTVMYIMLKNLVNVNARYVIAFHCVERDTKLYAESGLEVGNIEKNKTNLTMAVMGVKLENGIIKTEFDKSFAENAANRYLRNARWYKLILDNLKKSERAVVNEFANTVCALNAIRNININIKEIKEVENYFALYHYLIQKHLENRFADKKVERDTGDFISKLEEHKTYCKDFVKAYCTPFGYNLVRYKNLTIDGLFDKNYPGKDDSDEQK

B1: target 1 insA 3' of 15,insA 3' of 13 (mixed)
RNA 1: CACCCGUGCAAAAAUGCAGGGGUCUAAAACUGAGCGGAUAACCUCUCUAUGG
RNA 2: GGGAAUGGAUCCACAUCUACGAAUUCGUACCAUAGAGAAGAGUUAUCCGCUCACCGAGAUCGGAAGAGCACACGU
B2: target 1 C6U,U10C (mixed)
RNA 1: B1 RNA 1
RNA 2: GGGAAUGGAUCCACAUCUACGAAUUCGUACCAUAGAGAGGUCAUCUGCUCACCGAGAUCGGAAGAGCACACGU
B3: target 1 complement block 1-12 (mixed)
RNA 1: B1 RNA 1
RNA 2: GGGAAUGGAUCCACAUCUACGAAUUCGUACCAUAGAGAGCAAUAGGCGAGUCCGAGAUCGGAAGAGCACACGU
B4: target 1 A9G,G13U (mixed)
RNA 1: B1 RNA 1
RNA 2: B2 RNA 2 with G39U, C42U, A43G, U46C
B5: target 1 C6G,U10A (mixed)
RNA 1: B1 RNA 1
RNA 2: B2 RNA 2 with C42A, U46G
B6: target 1 insG 3' of 9,insG 3' of 8 (mixed)
RNA 1: B1 RNA 1
RNA 2: B1 RNA 2 with A39G, A41U, G42U, U43A, U44G, A45U, U46G
B7: target 1 C4G,U8A (mixed)
RNA 1: B1 RNA 1
RNA 2: B2 RNA 2 with C42U, U44A, U46C, C48G
B8: target 1 A1U,C21A (mixed)
RNA 1: B1 RNA 1
RNA 2: B2 RNA 2 with C31A, C42U, U46C, A51U
B9: target 1 G13A,U19G (mixed)
RNA 1: B1 RNA 1
RNA 2: B2 RNA 2 with U33G, G39A, C42U, U46C
B10: target 1 insG 3' of 22,insC 3' of 13 (mixed)
RNA 1: B1 RNA 1
RNA 2: B1 RNA 2 with C31G, A32C, U33A, A34U, G35A, A36G, G37A, A38G, A41C
B11: target 1 insC 3' of 16,insG 3' of 6 (mixed)
RNA 1: B1 RNA 1
RNA 2: B1 RNA 2 with G37C, A38G, A41G, G42U, U44A, A45U, U46C, C48G
B12: target 1 G12A,G17A (mixed)
RNA 1: B1 RNA 1
RNA 2: B2 RNA 2 with G35A, G40A, C42U, U46C
B13: target 1 A1G,C21A (mixed)
RNA 1: B1 RNA 1
RNA 2: B2 RNA 2 with C31A, C42U, U46C, A51G
B14: target 1 insA 3' of 21,insG 3' of 18 (mixed)
RNA 1: B1 RNA 1
RNA 2: B1 RNA 2 with U33A, A34U, G35A, A36G, A39G, G40A, A41G
B15: target 1 complement block 2-12 (mixed)
RNA 1: B1 RNA 1
RNA 2: B3 RNA 2 with U51A
B16: target 1 C7A,A9U (mixed)
RNA 1: B1 RNA 1
RNA 2: B2 RNA 2 with C42U, A43U, C45A, U46C

The binders below were run against T1, EsCas13d, nuclease-dead (assay: crRNA (strand 1, pre-loaded); Mg2+; 40 mM Tris-HCl pH 7.5, 150 mM NaCl, 6 mM MgCl2, 1 mM DTT, 0.1% Tween-20, 0.2 mg/ml BSA; 25 C; 10 min per concentration, then washed). Details: tags: His6-TwinStrep-SUMO cleaved; N-terminal SNAP kept (SNAP-Surface 488); label: 3' end held by stalled T7 RNA polymerase.

Binder	Kd
B1	5.63 ± 0.28 nM
B2	19.7 ± 0.8 nM
B3	19.6 ± 1 nM
B4	53 ± 6 nM
B5	8.6 ± 0.6 nM
B6	17.2 ± 1.3 nM
B7	7.4 ± 0.4 nM
B8	25.3 ± 3.1 nM
B9	80 ± 40 nM
B10	44 ± 6 nM
B11	~100 nM
B12	30.8 ± 3.2 nM
B13	27 ± 4 nM
B14	77 ± 20 nM
B15	23.4 ± 1.6 nM
B16	7.5 ± 0.4 nM

From paper PMC10786891, “Massively parallel profiling of RNA-targeting CRISPR-Cas13d”
